# Laboratory results as given in US20220280611A1, “SOLID COMPOSITION COMPRISING A PYY COMPOUND AND A SALT OF N-(8-(2- HYDROXYBENZOYL)AMINO)CAPRYLIC ACID” (Novo Nordisk A/S, priority 2019, published 2022).
# Starred links: 1 amine or outer side, 2 acyl side, 3 side chain; linkers in the order of their positions; H or OH if unused. Non-standard residues stand in square brackets, D forms with d. Groups on a side chain read outwards from the residue. No end group written: not given here. *: point of attachment. Decanoyl(10-(4-HOOC-PhO)) = O=C(O)c1ccc(OCCCCCCCCCC(=O)*)cc1; γGlu = O=C(O)[C@H](CCC(=O)[*:2])N[*:1]; AEEA = NCCOCCOCC(=O)O; Aib = CC(C)(N)C(=O)O
# Assays:
# [1] = in words; PCT/EP2019/052487; cited from earlier work
# [2] = Assay IV: Pharmacokinetic studies in Beagle dogs (oral exposure); type: in vivo; details: peroral
# Experimental: Pharmacokinetic (PK) studies in Beagle dogs are conducted to determine the exposure of the PYY compound after peroral administration of different dosage forms.
# For the pharmacokinetic studies male Beagle dogs are used, 1 to 5 years of age and weighing approximately 10-12 kg at the start of the studies. The dogs are group housed in pens (12 hours light: 12 hours dark), and fed individually and restrictedly once daily with Royal Canin Medium Adult dog (Royal Canin Products, China Branch, or Brogaarden A/S, Denmark). Exercise and group social are permitted daily, whenever possible. The dogs are used for repeated pharmacokinetic studies with a suitable wash-out period between successive dosings. An appropriate acclimatisation period is given prior to initiation of the first pharmacokinetic study. All handling, dosing and blood sampling of the animals are performed by trained and skilled staff. Before the studies the dogs are fasted overnight and from 0 to 4 h after dosing. Besides, the dogs are restricted to water 1 hour before dosing until 4 hours after dosing, but otherwise have ad libitum access to water during the whole period.
# The tablets comprising the PYY compound are administered in the following manner: 10 min prior to tablet administration the dogs are dosed subcutaneously with approximately 3 nmol/kg of SEQ ID NO: 34). The PYY tablets are placed in the back of the mouth of the dog to prevent chewing. The mouth is then closed and tap water is given by a syringe or gavage to facilitate swallowing of the tablet.
# Blood is sampled at predefined time points for up till 10 hr post dosing to adequately cover the full plasma concentration-time absorption profile of the PYY compound.
# For each blood sampling time point approximately 0.8 mL of whole blood is collected in a 1.5 mL EDTA coated tube, and the tube is gently turned to allowing mixing of the sample with the EDTA. Blood samples (for example 0.8 mL) are collected in EDTA buffer (8 mM) and then centrifuged at 4° C. and 2000 G for 10 minutes. Plasma is pipetted into Micronic tubes on dry ice and kept at −20° C. until analysis. […]
# PYY compound was assayed in dog plasma by plasma protein precipitation and turboflow liquid chromatography tandem mass spectrometry (TF-LC-MS/MS). […] The mixture was analysed by TF-LC-MS/MS using a Cyclone turboflow column (0.5×50 mm, ThermoFisher Scientific) and an Aeris Peptide 3.6 um XB-C18 analytical column (50×2.1 mm, Phenomenex) or a Poroshell SB-C18 2.7 um analytical column (50×2.1 mm, Agilent). […] The deviation between nominal and calculated concentration in the calibrators and quality control samples was below 20%. […]
# [3] = Test 4 tablet, SNAC amount 100 mg
# [4] = Test 3 tablet, SNAC amount 300 mg
substance,measurement,setting,value
"N-epsilon26-[2-(2-{2-[2-(2-{2-[(S)-4-carboxy-4-(17-carboxyheptadecanoylamino) butyrylamino]ethoxy}ethoxy)acetylamino]ethoxy}ethoxy)acetyl][Aib8,Arg34]GLP-1(7-37) [Semaglutide]",Oral availability when formulated in a SNAC formulation,[1],orally available
"N{alpha-4}-(3-Methylbutanoyl)-N{Epsilon-7}-6-[[(4S)-4-carboxy-4-(17-carboxy-heptadecanoylamino)butanoyl]amino]hexanoyl-[Arg4,Lys7,Gln18,Ile22,Tyr28, Trp30,Leu31]hPYY(4-36) [Compound 32]",Dose corrected AUC 0-30 min,[2]; [3],5.05 arbitrary unit
same,Dose corrected exposure t = 30 min,[2]; [3],0.268 kg/L
"N-epsilon27-[2-[2-[2-[[2-[2-[2-[[(4S)-4-carboxy-4-[10-(4-carboxyphenoxy)decanoylamino]butanoyl]amino]ethoxy]ethoxy]acetyl]amino]ethoxy]ethoxy]-acetyl], N-epsilon36-[2-[2-[2-[[2-[2-[2-[[(4S)-4-carboxy-4-[10-(4-carboxyphenoxy)decanoylamino]-butanoyl]amino]ethoxy]ethoxy]acetyl]amino]ethoxy]ethoxy]acetyl]-[Aib8,Glu22,Arg26,Lys27, Glu30,Arg34,Lys36]-GLP-1-(7-37)-peptidyl-Glu-Gly (H[Aib]EGTFTSDVSSYLEEQAARK([AEEA-AEEA-γGlu-Decanoyl(10-(4-HOOC-PhO))])FIEWLVRGK([AEEA-AEEA-γGlu-Decanoyl(10-(4-HOOC-PhO))])GEG) [GLP-1 agonist A]",Oral availability when formulated in a SNAC formulation,[1],orally available
"N{alpha-4}-(3-Methylbutanoyl)-N{Epsilon-7}-6-[[(4S)-4-carboxy-4-(17-carboxy-heptadecanoylamino)butanoyl]amino]hexanoyl-[Arg4,Lys7,Pro9,Gln18,Tyr28,Trp30,Leu31]hPYY(4-36) [Compound 4]",Dose corrected AUC 0-30 min,[2]; [4],2.24 arbitrary unit
same,Dose corrected exposure t = 30 min,[2]; [4],0.138 kg/L
